Legend:
Test in all cases: cell-based or functional assay
[1] = biological target: human CLDN3 P149A mutant on RKO KO cells (human) (UniProt O15551)
[2] = biological target: mouse CLDN3 with C-terminal monomeric GFP tag on RKO-KO cells (mouse) (UniProt Q9Z0G9)
[3] = biological target: human CLDN3 N148A mutant on RKO KO cells (human) (UniProt O15551)
[4] = biological target: human CLDN3 R157A mutant on RKO KO cells (human) (UniProt O15551)
[5] = biological target: T1, human CLDN3 N38A mutant on RKO KO cells (human, UniProt O15551 1-220)
T1 construct: Single-point alanine mutant, monoclonal RKO KO line with GFP
T1 chain: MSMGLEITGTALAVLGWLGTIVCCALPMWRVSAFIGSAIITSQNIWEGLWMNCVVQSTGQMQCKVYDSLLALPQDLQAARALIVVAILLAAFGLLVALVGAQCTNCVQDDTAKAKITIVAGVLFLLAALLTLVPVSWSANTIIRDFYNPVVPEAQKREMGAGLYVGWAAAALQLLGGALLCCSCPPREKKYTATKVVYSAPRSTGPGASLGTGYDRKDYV

[6] = biological target: human CLDN4 with C-terminal monomeric GFP tag on RKO-KO cells (human) (UniProt O14493)
[7] = biological target: human CLDN3 V150A mutant on RKO KO cells (human) (UniProt O15551)
[8] = biological target: T2, human CLDN3 E153A mutant on RKO KO cells (human, UniProt O15551 1-220)
T2 construct: Single-point alanine mutant, monoclonal RKO KO line with GFP
T2 chain: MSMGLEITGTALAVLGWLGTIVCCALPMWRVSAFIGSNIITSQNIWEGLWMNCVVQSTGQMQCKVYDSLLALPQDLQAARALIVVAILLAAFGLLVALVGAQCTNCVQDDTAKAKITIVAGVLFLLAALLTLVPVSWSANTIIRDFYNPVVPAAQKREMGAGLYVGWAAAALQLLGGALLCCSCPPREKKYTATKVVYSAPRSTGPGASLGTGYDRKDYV

[9] = biological target: human CLDN9 with C-terminal monomeric GFP tag on RKO-KO cells (human) (UniProt O95484)
Chain of human CLDN9 with C-terminal monomeric GFP tag on RKO-KO cells (human) (O95484 whole entry): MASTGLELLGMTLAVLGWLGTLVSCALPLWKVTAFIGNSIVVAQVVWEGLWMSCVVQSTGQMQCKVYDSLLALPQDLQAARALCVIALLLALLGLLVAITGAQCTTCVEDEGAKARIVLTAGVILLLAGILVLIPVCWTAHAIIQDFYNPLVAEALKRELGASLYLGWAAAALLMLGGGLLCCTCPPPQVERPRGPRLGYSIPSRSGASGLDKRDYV

[10] = biological target: human CLDN3 with C-terminal monomeric GFP tag on RKO-KO cells (human) (UniProt O15551)
[11] = biological target: human CLDN3 F34A mutant on RKO KO cells (human) (UniProt O15551)
[12] = biological target: T3, human CLDN6 with C-terminal monomeric GFP tag on RKO-KO cells (human) (UniProt P56747)
T3 sequence (looked up): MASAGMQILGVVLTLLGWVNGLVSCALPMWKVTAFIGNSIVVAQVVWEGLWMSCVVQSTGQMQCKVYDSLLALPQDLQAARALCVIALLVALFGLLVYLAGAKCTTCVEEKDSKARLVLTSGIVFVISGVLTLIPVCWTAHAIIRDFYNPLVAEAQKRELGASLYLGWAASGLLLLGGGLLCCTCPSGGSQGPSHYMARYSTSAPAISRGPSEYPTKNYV

[13] = biological target: human CLDN3 Q155A mutant on RKO KO cells (human) (UniProt O15551)
[14] = biological target: human CLDN3 Q43A mutant on RKO KO cells (human) (UniProt O15551)
[15] = biological target: human CLDN3 P152A mutant on RKO KO cells (human) (UniProt O15551)
[16] = biological target: human CLDN3 I39A mutant on RKO KO cells (human) (UniProt O15551)
[17] = biological target: human CLDN3 I45A mutant on RKO KO cells (human) (UniProt O15551)
[18] = biological target: human CLDN3 S42A mutant on RKO KO cells (human) (UniProt O15551)
[19] = biological target: human CLDN3 K156A mutant on RKO KO cells (human) (UniProt O15551)

Chain of mouse CLDN3 with C-terminal monomeric GFP tag on RKO-KO cells (mouse) (Q9Z0G9 whole entry): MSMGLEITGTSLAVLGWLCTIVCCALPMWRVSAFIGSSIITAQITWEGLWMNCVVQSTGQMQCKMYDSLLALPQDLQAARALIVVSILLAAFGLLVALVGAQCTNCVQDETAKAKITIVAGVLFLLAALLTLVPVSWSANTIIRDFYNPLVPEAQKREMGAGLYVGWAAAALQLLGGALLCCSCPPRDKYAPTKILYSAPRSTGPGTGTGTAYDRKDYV

B1: 906-009_LNGFR anti-claudin-3 chimeric antigen receptor (scFv orientation L-H, short hCD8 spacer), on T cells (protein, part only; not given: linker, spacer and signaling domains, not shown: large carriers)
chain, part: DIQMTQSPSSLSASVGDRVTITCKASQDINRYIAWYQQKPGKAPKLLIHYTSTLQPGVPSRFSGSGSGTDFTLTISSLQPEDFATYYCLQYETLYSFGQGTKLEIKQVQLVQSGAEVKKPGSSVKVSCKASGYTFTNYWVHWVRQAPGQGLEWMGRIEPNSSGSQYNEKFKNRVTITADKSTSTAYMELSSLRSEDTAVYYCARGVMVPLDYWGQGTLVTVSS
An IFNγ as % of IFNγ in CLDN3 WT (24 h co-culture, normalised to untransduced T cells) [1] of 95.5%, a % Live Cells at Assay Endpoint (40 hrs, donor 92024) [2] of 89% and a % Live Cells at Assay Endpoint (70 hrs, donor D5) [2] of 97.7% were found for B1 in this work. It also gave a % Live Cells at Assay Endpoint (90 hrs, donor 0372470) [2] of 94.5%, a % Live Cells at Assay Endpoint (96 hrs, donor C1700979) [2] of 71% and a % Live Cells at Assay Endpoint (96 hrs, donor C1700980) [2] of 86%. The % Live Cells at Assay Endpoint (120 hrs, donor 0372470) [2] was 81.7%, the IFNγ secretion fold change, anti-claudin-3 CAR-T cells vs anti-CD19 CAR-T cells [2] was 439 fold and the IFNγ secretion fold change, anti-claudin-3 CAR-T cells vs untransduced T cells [2] was 521 fold. It also gave an IFNγ as % of IFNγ in CLDN3 WT (24 h co-culture, normalised to untransduced T cells) [3] of 104%, an IFNγ as % of IFNγ in CLDN3 WT (24 h co-culture, normalised to untransduced T cells) [4] of 107% and an IFNγ as % of IFNγ in CLDN3 WT (24 h co-culture, normalised to untransduced T cells) [5] of 0.11%. It also gave a % Live Cells at Assay Endpoint (90 hrs, donor 0372470) [6] of 94.7%, a % Live Cells at Assay Endpoint (120 hrs, donor 0372470) [6] of 90.7% and an IFNγ secretion fold change, anti-claudin-3 CAR-T cells vs anti-CD19 CAR-T cells [6] of 25.1 fold. For the same binder, the IFNγ secretion fold change, anti-claudin-3 CAR-T cells vs untransduced T cells [6] was 29.2 fold, the IFNγ as % of IFNγ in CLDN3 WT (24 h co-culture, normalised to untransduced T cells) [7] was 91.3% and the IFNγ as % of IFNγ in CLDN3 WT (24 h co-culture, normalised to untransduced T cells) [8] was 3.56%. It also gave a % Live Cells at Assay Endpoint (40 hrs, donor 92024) [9] of 96.7%, a % Live Cells at Assay Endpoint (70 hrs, donor D5) [9] of 96.3% and a % Live Cells at Assay Endpoint (96 hrs, donor C1700979) [9] of 92.7%. It also gave a % Live Cells at Assay Endpoint (96 hrs, donor C1700980) [9] of 101%, an IFNγ secretion fold change, anti-claudin-3 CAR-T cells vs anti-CD19 CAR-T cells [9] of 14.3 fold and an IFNγ secretion fold change, anti-claudin-3 CAR-T cells vs untransduced T cells [9] of 11.3 fold. It also gave a % Live Cells at Assay Endpoint (40 hrs, donor 92024) [10] of 16.3%, a % Live Cells at Assay Endpoint (70 hrs, donor D5) [10] of 0% and a % Live Cells at Assay Endpoint (90 hrs, donor 0372470; RKO KO hCLDN3 L14) [10] of -6%. For the same binder, the % Live Cells at Assay Endpoint (96 hrs, donor C1700979; RKO KO hCLDN3 L14) [10] was 29%, the % Live Cells at Assay Endpoint (96 hrs, donor C1700980; RKO KO hCLDN3 L14) [10] was 57.3% and the % Live Cells at Assay Endpoint (120 hrs, donor 0372470) [10] was 20.3%. For the same binder, the IFNγ secretion fold change, anti-claudin-3 CAR-T cells vs anti-CD19 CAR-T cells [10] was 2500 fold, the IFNγ secretion fold change, anti-claudin-3 CAR-T cells vs untransduced T cells [10] was 1350 fold and the IFNγ as % of IFNγ in CLDN3 WT (24 h co-culture, normalised to untransduced T cells) [11] was 79.7%. For the same binder, the % Live Cells at Assay Endpoint (40 hrs, donor 92024) [12] was 96.3%, the % Live Cells at Assay Endpoint (96 hrs, donor C1700979) [12] was 96% and the % Live Cells at Assay Endpoint (96 hrs, donor C1700980) [12] was 100%. For the same binder, the IFNγ secretion fold change, anti-claudin-3 CAR-T cells vs anti-CD19 CAR-T cells [12] was 10.9 fold, the IFNγ secretion fold change, anti-claudin-3 CAR-T cells vs untransduced T cells [12] was 2.59 fold and the IFNγ as % of IFNγ in CLDN3 WT (24 h co-culture, normalised to untransduced T cells) [13] was 86.3%. For the same binder, the IFNγ as % of IFNγ in CLDN3 WT (24 h co-culture, normalised to untransduced T cells) [14] was 72.8%, the IFNγ as % of IFNγ in CLDN3 WT (24 h co-culture, normalised to untransduced T cells) [15] was 61.6% and the IFNγ as % of IFNγ in CLDN3 WT (24 h co-culture, normalised to untransduced T cells) [16] was 71.5%. The IFNγ as % of IFNγ in CLDN3 WT (24 h co-culture, normalised to untransduced T cells) [17] was 66.1%, the IFNγ as % of IFNγ in CLDN3 WT (24 h co-culture, normalised to untransduced T cells) [18] was 95.2% and the IFNγ as % of IFNγ in CLDN3 WT (24 h co-culture, normalised to untransduced T cells) [19] was 101%.
